Where no end group is shown, it is not given here. Side-chain parts run from the residue outwards. 4‑arm PEG 10 kDa = 10 kDa 4-armed polyethylene glycol
T1: recombinant mouse Tie2Fc (mouse, UniProt Q02858 23-743)
T1 chain: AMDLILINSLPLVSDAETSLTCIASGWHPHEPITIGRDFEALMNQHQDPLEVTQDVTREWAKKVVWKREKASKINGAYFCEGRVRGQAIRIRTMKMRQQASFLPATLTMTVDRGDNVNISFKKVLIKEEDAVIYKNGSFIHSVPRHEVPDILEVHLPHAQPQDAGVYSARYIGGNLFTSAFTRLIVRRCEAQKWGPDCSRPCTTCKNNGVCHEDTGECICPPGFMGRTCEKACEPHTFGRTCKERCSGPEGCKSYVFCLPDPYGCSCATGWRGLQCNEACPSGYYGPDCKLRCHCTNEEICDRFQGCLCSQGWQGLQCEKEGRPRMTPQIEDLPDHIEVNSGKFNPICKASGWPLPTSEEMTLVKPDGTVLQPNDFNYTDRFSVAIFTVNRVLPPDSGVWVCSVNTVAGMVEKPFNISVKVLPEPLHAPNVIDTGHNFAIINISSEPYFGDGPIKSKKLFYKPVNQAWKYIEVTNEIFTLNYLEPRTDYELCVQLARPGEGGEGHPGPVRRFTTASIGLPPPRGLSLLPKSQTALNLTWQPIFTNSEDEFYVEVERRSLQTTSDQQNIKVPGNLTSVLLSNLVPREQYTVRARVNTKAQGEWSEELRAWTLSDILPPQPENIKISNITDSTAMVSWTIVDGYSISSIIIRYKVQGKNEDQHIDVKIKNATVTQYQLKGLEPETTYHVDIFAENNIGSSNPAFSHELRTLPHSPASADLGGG

T2: recombinant cynomolgus monkey Tie2-FC (Macaca fascicularis, UniProt G7PS68 23-748)
T2 chain: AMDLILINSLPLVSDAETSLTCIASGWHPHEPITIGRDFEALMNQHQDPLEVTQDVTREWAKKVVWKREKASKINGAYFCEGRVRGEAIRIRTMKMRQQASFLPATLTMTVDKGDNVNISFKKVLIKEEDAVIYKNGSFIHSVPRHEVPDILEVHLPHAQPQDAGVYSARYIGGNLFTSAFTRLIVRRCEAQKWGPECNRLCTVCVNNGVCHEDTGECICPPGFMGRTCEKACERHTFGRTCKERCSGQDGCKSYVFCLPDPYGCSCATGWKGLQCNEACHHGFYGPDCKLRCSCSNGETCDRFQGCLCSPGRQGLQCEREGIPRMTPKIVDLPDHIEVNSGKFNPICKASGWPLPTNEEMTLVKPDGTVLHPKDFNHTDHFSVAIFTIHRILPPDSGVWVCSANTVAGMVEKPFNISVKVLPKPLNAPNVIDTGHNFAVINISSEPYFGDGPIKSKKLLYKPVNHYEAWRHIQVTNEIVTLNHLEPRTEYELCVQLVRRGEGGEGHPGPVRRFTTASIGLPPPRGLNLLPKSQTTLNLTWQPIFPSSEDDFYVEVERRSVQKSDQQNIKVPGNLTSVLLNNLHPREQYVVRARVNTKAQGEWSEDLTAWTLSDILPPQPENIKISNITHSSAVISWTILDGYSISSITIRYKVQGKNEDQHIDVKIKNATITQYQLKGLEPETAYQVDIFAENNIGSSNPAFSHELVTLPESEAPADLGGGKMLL

T3: recombinant rat Tie2-FC (Rattus norvegicus, UniProt A0ABK0L6J5 19-740)
T3 chain: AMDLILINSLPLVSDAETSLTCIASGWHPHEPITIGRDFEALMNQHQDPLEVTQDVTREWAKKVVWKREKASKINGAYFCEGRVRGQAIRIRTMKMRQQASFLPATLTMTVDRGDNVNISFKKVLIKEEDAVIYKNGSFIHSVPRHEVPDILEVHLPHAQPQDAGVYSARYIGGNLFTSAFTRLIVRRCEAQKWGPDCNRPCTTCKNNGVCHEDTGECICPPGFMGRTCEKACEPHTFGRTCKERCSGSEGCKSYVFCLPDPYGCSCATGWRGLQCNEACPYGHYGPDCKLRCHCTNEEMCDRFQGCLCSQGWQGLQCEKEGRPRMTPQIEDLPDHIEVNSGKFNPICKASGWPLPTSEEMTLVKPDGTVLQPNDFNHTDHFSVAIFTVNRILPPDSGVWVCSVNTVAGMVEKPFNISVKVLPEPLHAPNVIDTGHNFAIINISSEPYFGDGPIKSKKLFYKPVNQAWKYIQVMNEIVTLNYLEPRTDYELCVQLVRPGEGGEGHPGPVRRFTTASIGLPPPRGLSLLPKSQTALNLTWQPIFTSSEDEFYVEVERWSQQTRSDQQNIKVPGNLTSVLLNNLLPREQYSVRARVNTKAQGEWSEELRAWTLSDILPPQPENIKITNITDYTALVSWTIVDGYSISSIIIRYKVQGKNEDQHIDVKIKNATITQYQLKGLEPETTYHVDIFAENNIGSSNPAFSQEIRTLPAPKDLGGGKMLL


Key:
recombinant mouse Tie2Fc = target: T1, recombinant mouse Tie2Fc; experiment: tryptophan fluorescence spectroscopy
[1] = target: human Tie2 receptor on human endothelial cells (HUVEC, HMVECtert) (human, UniProt Q02763 23-1124); experiment: cell-based or functional assay
[2] = target: T2, recombinant cynomolgus monkey Tie2-FC; experiment: tryptophan fluorescence spectroscopy
recombinant rat Tie2-FC = target: T3, recombinant rat Tie2-FC; experiment: tryptophan fluorescence spectroscopy
recombinant human Tie2Fc = target: T4, recombinant human Tie2Fc (human, UniProt Q02763 23-745); experiment: tryptophan fluorescence spectroscopy in solution, non-linear regression one site specific binding
T4 construct: Bought from R&D Systems; not shown: human IgG Fc
Description: The specific signal was derived by subtraction of the fluorescence intensity generated by ligand alone from the receptor and ligand complex.
Ligand and receptor interaction. […] Data was compiled using SoftMax and analyzed using Prism.

| Binder | Kd (recombinant mouse Tie2Fc) | relative magnitude of Tie2 activation in HMVECtert [1] | Kd [2] | Kd (recombinant rat Tie2-FC) | Kd (recombinant human Tie2Fc) |
| --- | --- | --- | --- | --- | --- |
| C([maleimide-4‑arm PEG 10 kDa])HHHRHSF (also: tetramer: four copies on 4-armed 10 kDa PEG, mixture of succinimide and thiazine ring products, Manufactured by Bachem; also called VT; parental VT) [parental Vasculotide] | 35 nM | – | – | – | – |
| HHHRHSF-OH (not fully specified (N-terminus); also: tetramer: four copies on (bromoacetimide)4-PEG10K, Mpa is not an amino acid; also called mBr; AV-001) [MPA-Br] | 6.82 nM | ~3.3 fold | 0.0229 nM | 4.21 nM | 2.62 nM |

Source: patent publication US20250345387A1, “CORONAVIRUS THERAPEUTICS AND TREATMENT METHODS” (priority 2020, published 2025)
